Results as given in patent publication US20180201672A1 (ACADEMIA SINICA, published 2018).

T1: interleukin-17 receptor B (IL-17RB), human, endogenous or ectopic full-length on cells (human, UniProt Q9NRM6 18-502)
T1 construct: In the assays the protein stood on human cancer cell lines or tissue sections; also called native IL-17RB; endogenous IL-17RB
T1 sequence: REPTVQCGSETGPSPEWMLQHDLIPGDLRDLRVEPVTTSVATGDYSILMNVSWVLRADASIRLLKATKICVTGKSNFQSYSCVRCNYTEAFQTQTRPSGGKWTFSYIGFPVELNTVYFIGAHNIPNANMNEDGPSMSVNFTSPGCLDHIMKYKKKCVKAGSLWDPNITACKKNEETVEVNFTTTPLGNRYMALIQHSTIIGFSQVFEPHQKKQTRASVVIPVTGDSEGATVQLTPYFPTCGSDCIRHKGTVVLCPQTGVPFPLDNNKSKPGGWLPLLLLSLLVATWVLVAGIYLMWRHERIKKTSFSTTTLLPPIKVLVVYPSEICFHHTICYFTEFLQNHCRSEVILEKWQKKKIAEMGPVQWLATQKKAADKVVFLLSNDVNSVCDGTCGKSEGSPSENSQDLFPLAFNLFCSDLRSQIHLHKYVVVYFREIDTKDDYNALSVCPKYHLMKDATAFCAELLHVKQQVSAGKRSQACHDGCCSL

B1: chimeric monoclonal anti-IL-17RB antibody cD9 (antibody, V domains shown)
VH: EVQLQQSGPELVKPGASVKISCKTSGYTFTEYTIHWVKQNHGKSLDWIGGINPNNGGTTYNQEFKGKATLTVDKSSSTAYMEFRSLTSEDSAVYYCARSYYGYVDYWGQGTTLTAA
VL: QIVLTQSPAIMSASPGEKVTMTCSASSSIYYIHWYQQKSGTSPKRWIYDTSKLASGVPARFSGSGSGTSYSLTISSMEAEDAATYYCQQWSSNPFTFGSGTKLEIK
notes: also called chimeric D9 antibody; mAb cD9
B2: mouse monoclonal anti-IL-17RB antibody D9 (antibody, V domains shown)
VH: B1 VH
VL: B1 VL
notes: Mouse monoclonal antibody from a hybridoma, raised against recombinant IL-17RB extracellular domain (amino acids 18-289) made in HEK293 cells; also called mAb D9; mAbD9

Target: T1, interleukin-17 receptor B (IL-17RB), …
Test: FACS on IL-17RB expressing pancreatic cancer cell lines (CFPAC-1 WT and KO, HPAF-II; MCF10A negative control)
Experimental: FIG. 9. Specificity and Binding Efficiency of anti-IL17RB chimeric D9 antibody (cD9). A, the specific recognition of mouse and chimeric D9 antibody to IL-17RB was determined by FACS analysis using IL-17RB expression (WT) and IL-17RB knock-out (KO) pancreatic cancer cell line CFPAC-1. The FACS profiling of no antibody (no staining) or secondary antibody only (2nd Ab only) were served as control. B, the recognition efficiency of mouse and chimeric D9 antibody was measured by FACS analysis using IL-17RB expression pancreatic cancer cell lines, CFPAC-1 and HPAF-II. MCF10A with no IL-17RB expression was served as negative control.

| Binder | binding result |
| --- | --- |
| B1 | binds |
| B2 | binds |
